Results taken from US20140105889A1 (published 2014).

B1: GpH7-B3 D270S / GpL16-k0 (antibody, human IgG1)
heavy: not shown
light: DIVMTQSPLSLPVTPGEPASISCQASESLVHSNRNTYLHWYLQKPGQSPQLLIYKVSNRFSGVPDRFSGSGSGTDFTLKISRVEAEDVGVYYCSQNTHVPPTFGQGTKVEIE
notes: B3 variant: anti-glypican-3 IgG1 (constant region B3 = G1d with K439E) with one substitution, EU numbering; also called B3 variant D270S; copies: 2 + 2
B2: GpH7-B3 Q295S / GpL16-k0 (antibody, human IgG1)
heavy: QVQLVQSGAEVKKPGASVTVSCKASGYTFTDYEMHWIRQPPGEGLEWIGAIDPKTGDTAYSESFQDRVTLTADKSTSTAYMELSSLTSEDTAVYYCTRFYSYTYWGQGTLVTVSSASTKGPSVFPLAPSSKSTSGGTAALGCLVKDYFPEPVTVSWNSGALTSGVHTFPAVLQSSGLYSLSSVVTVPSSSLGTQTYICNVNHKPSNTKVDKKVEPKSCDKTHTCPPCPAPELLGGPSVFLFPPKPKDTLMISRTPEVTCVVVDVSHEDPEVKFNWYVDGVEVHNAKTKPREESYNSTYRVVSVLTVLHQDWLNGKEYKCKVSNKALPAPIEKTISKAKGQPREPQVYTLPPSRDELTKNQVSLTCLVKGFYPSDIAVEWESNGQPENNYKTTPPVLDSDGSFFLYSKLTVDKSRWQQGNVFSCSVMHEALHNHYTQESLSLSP
light: DIVMTQSPLSLPVTPGEPASISCQASESLVHSNRNTYLHWYLQKPGQSPQLLIYKVSNRFSGVPDRFSGSGSGTDFTLKISRVEAEDVGVYYCSQNTHVPPTFGQGTKVEIE
notes: B3 variant: anti-glypican-3 IgG1 (constant region B3 = G1d with K439E) with one substitution, EU numbering; also called B3 variant Q295S; copies: 2 + 2
B3: GpH7-B3 Q295G / GpL16-k0 (antibody, human IgG1)
heavy: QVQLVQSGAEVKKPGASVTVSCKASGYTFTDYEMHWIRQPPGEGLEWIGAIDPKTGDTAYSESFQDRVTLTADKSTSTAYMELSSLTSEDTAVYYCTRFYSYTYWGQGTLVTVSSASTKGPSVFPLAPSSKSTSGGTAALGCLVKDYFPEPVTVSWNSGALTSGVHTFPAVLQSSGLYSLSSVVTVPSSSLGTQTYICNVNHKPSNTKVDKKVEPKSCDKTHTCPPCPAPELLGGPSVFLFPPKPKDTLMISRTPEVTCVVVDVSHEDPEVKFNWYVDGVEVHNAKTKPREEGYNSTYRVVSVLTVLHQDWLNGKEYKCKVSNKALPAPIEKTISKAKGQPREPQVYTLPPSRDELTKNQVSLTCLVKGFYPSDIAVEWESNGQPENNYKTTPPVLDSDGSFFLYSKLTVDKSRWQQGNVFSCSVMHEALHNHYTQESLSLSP
light: DIVMTQSPLSLPVTPGEPASISCQASESLVHSNRNTYLHWYLQKPGQSPQLLIYKVSNRFSGVPDRFSGSGSGTDFTLKISRVEAEDVGVYYCSQNTHVPPTFGQGTKVEIE
notes: B3 variant: anti-glypican-3 IgG1 (constant region B3 = G1d with K439E) with one substitution, EU numbering; also called B3 variant Q295G; copies: 2 + 2
B4: GpH7-B3 Q295Y / GpL16-k0 (antibody, human IgG1)
heavy: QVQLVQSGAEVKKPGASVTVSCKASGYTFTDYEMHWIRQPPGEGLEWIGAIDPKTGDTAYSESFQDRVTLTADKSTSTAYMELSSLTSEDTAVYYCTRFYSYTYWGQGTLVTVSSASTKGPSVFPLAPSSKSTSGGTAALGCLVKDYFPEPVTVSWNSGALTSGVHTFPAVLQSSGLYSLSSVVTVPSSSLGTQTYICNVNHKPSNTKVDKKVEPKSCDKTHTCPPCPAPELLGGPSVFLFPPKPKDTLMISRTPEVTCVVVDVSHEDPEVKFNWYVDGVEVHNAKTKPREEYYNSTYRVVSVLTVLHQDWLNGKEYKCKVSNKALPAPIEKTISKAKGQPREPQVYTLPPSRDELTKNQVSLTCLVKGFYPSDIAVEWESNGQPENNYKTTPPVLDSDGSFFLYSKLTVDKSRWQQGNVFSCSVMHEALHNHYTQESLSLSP
light: DIVMTQSPLSLPVTPGEPASISCQASESLVHSNRNTYLHWYLQKPGQSPQLLIYKVSNRFSGVPDRFSGSGSGTDFTLKISRVEAEDVGVYYCSQNTHVPPTFGQGTKVEIE
notes: B3 variant: anti-glypican-3 IgG1 (constant region B3 = G1d with K439E) with one substitution, EU numbering; also called B3 variant Q295Y; copies: 2 + 2
B5: GpH7-B3 Y296K / GpL16-k0 (antibody, human IgG1)
heavy: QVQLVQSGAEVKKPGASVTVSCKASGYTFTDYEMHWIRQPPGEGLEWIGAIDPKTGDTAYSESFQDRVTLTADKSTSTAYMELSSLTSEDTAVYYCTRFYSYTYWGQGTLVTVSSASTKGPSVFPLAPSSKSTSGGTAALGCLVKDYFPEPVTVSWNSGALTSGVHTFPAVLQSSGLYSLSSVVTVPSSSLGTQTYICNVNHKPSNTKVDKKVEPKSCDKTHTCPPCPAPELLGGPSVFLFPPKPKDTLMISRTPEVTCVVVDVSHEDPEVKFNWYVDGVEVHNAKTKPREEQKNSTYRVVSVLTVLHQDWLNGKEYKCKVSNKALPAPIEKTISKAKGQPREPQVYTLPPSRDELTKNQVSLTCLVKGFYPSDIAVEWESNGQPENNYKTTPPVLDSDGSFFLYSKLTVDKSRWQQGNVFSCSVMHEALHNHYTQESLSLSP
light: DIVMTQSPLSLPVTPGEPASISCQASESLVHSNRNTYLHWYLQKPGQSPQLLIYKVSNRFSGVPDRFSGSGSGTDFTLKISRVEAEDVGVYYCSQNTHVPPTFGQGTKVEIE
notes: B3 variant: anti-glypican-3 IgG1 (constant region B3 = G1d with K439E) with one substitution, EU numbering; also called B3 variant Y296K; copies: 2 + 2
B6: GpH7-B3 S298K / GpL16-k0 (antibody, human IgG1)
heavy: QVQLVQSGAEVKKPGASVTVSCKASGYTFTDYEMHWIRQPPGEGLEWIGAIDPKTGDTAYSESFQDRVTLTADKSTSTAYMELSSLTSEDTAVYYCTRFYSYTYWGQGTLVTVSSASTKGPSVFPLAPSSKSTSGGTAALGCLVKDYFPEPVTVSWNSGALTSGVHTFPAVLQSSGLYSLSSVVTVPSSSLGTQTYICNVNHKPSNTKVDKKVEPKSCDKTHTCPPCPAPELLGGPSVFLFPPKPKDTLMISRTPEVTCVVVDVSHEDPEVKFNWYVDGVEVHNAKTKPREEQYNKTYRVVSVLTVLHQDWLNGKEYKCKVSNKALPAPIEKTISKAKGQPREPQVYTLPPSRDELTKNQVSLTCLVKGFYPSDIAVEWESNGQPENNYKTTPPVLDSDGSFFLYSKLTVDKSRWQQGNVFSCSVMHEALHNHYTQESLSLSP
light: DIVMTQSPLSLPVTPGEPASISCQASESLVHSNRNTYLHWYLQKPGQSPQLLIYKVSNRFSGVPDRFSGSGSGTDFTLKISRVEAEDVGVYYCSQNTHVPPTFGQGTKVEIE
notes: B3 variant: anti-glypican-3 IgG1 (constant region B3 = G1d with K439E) with one substitution, EU numbering; also called B3 variant S298K; copies: 2 + 2
B7: GpH7-B3 S298Y / GpL16-k0 (antibody, human IgG1)
heavy: not shown
light: DIVMTQSPLSLPVTPGEPASISCQASESLVHSNRNTYLHWYLQKPGQSPQLLIYKVSNRFSGVPDRFSGSGSGTDFTLKISRVEAEDVGVYYCSQNTHVPPTFGQGTKVEIE
notes: B3 variant: anti-glypican-3 IgG1 (constant region B3 = G1d with K439E) with one substitution, EU numbering; also called B3 variant S298Y; copies: 2 + 2
B8: GpH7-B3 P271R / GpL16-k0 (antibody, human IgG1)
heavy: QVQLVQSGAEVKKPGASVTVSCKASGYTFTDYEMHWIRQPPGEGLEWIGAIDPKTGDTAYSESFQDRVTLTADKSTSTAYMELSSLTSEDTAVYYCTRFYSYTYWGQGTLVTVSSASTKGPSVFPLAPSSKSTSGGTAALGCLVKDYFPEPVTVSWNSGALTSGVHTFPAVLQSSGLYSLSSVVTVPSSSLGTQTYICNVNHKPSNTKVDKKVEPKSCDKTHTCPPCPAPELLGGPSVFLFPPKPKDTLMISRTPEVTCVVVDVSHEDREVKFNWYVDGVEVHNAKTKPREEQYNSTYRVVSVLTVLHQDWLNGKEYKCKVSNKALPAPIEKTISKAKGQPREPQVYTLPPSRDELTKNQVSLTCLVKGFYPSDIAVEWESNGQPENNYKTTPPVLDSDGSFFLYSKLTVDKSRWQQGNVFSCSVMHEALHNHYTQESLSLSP
light: DIVMTQSPLSLPVTPGEPASISCQASESLVHSNRNTYLHWYLQKPGQSPQLLIYKVSNRFSGVPDRFSGSGSGTDFTLKISRVEAEDVGVYYCSQNTHVPPTFGQGTKVEIE
notes: B3 variant: anti-glypican-3 IgG1 (constant region B3 = G1d with K439E) with one substitution, EU numbering; also called B3 variant P271R; copies: 2 + 2
B9: GpH7-B3 Q295H / GpL16-k0 (antibody, human IgG1)
heavy: not shown
light: DIVMTQSPLSLPVTPGEPASISCQASESLVHSNRNTYLHWYLQKPGQSPQLLIYKVSNRFSGVPDRFSGSGSGTDFTLKISRVEAEDVGVYYCSQNTHVPPTFGQGTKVEIE
notes: B3 variant: anti-glypican-3 IgG1 (constant region B3 = G1d with K439E) with one substitution, EU numbering; also called B3 variant Q295H; copies: 2 + 2
B10: GpH7-B3 P271T / GpL16-k0 (antibody, human IgG1)
heavy: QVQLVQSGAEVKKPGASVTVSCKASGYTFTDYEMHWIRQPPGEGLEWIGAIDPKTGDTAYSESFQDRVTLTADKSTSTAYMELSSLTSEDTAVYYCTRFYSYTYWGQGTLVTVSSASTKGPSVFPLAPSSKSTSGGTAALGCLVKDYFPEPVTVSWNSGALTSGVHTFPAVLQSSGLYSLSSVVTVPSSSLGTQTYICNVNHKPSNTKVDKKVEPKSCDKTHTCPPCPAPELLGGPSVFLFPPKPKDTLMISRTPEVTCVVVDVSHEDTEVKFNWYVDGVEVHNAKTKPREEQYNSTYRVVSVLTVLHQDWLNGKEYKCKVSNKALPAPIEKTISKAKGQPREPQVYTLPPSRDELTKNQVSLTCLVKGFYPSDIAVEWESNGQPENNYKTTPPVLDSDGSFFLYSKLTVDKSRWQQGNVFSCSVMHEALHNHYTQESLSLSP
light: DIVMTQSPLSLPVTPGEPASISCQASESLVHSNRNTYLHWYLQKPGQSPQLLIYKVSNRFSGVPDRFSGSGSGTDFTLKISRVEAEDVGVYYCSQNTHVPPTFGQGTKVEIE
notes: B3 variant: anti-glypican-3 IgG1 (constant region B3 = G1d with K439E) with one substitution, EU numbering; also called B3 variant P271T; copies: 2 + 2
B11: GpH7-B3 Q295F / GpL16-k0 (antibody, human IgG1)
heavy: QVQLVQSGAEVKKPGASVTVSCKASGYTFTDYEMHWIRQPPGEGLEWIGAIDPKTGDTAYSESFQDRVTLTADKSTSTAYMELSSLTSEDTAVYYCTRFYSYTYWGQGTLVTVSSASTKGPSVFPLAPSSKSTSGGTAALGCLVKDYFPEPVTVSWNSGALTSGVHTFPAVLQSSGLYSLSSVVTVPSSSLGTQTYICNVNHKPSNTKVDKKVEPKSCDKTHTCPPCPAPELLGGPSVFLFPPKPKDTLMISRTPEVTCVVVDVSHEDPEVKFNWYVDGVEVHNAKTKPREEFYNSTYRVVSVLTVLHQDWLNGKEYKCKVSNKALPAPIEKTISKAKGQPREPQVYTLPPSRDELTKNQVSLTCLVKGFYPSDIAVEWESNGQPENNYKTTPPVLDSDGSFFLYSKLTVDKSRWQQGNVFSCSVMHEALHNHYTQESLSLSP
light: DIVMTQSPLSLPVTPGEPASISCQASESLVHSNRNTYLHWYLQKPGQSPQLLIYKVSNRFSGVPDRFSGSGSGTDFTLKISRVEAEDVGVYYCSQNTHVPPTFGQGTKVEIE
notes: B3 variant: anti-glypican-3 IgG1 (constant region B3 = G1d with K439E) with one substitution, EU numbering; also called B3 variant Q295F; copies: 2 + 2
B12: GpH7-B3 Q295N / GpL16-k0 (antibody, human IgG1)
heavy: not shown
light: DIVMTQSPLSLPVTPGEPASISCQASESLVHSNRNTYLHWYLQKPGQSPQLLIYKVSNRFSGVPDRFSGSGSGTDFTLKISRVEAEDVGVYYCSQNTHVPPTFGQGTKVEIE
notes: B3 variant: anti-glypican-3 IgG1 (constant region B3 = G1d with K439E) with one substitution, EU numbering; also called B3 variant Q295N; copies: 2 + 2
B13: GpH7-B3 S298P / GpL16-k0 (antibody, human IgG1)
heavy: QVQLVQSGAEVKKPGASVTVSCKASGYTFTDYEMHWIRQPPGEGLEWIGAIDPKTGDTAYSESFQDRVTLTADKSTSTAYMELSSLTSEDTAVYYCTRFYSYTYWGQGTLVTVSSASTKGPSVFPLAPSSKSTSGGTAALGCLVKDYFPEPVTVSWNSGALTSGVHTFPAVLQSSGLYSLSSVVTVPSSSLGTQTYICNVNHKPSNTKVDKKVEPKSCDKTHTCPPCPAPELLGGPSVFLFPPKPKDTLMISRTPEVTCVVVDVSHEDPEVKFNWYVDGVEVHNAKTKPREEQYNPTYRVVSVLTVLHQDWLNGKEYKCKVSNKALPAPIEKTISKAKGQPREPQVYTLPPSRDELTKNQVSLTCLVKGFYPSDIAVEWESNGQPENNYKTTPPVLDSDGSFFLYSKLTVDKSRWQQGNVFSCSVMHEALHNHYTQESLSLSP
light: DIVMTQSPLSLPVTPGEPASISCQASESLVHSNRNTYLHWYLQKPGQSPQLLIYKVSNRFSGVPDRFSGSGSGTDFTLKISRVEAEDVGVYYCSQNTHVPPTFGQGTKVEIE
notes: B3 variant: anti-glypican-3 IgG1 (constant region B3 = G1d with K439E) with one substitution, EU numbering; also called B3 variant S298P; copies: 2 + 2
B14: GpH7-B3 Q295R / GpL16-k0 (antibody, human IgG1)
heavy: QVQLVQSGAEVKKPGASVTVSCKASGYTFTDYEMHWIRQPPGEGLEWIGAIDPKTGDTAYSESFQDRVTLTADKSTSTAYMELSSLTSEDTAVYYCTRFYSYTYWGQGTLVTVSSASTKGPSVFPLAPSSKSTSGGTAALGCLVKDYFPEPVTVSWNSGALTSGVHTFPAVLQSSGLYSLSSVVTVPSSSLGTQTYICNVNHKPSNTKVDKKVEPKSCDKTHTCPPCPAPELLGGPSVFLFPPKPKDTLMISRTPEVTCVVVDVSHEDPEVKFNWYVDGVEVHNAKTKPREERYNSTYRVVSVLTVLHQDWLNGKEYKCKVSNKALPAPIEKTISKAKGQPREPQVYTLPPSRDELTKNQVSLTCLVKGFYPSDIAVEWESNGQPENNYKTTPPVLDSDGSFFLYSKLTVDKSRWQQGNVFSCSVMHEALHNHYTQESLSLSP
light: DIVMTQSPLSLPVTPGEPASISCQASESLVHSNRNTYLHWYLQKPGQSPQLLIYKVSNRFSGVPDRFSGSGSGTDFTLKISRVEAEDVGVYYCSQNTHVPPTFGQGTKVEIE
notes: B3 variant: anti-glypican-3 IgG1 (constant region B3 = G1d with K439E) with one substitution, EU numbering; also called B3 variant Q295R; copies: 2 + 2

Biological target: T1, human FcγRIIIa(F) (human, UniProt P08637 17-208, limits assumed)
T1 construct: also called FcgRIIIaF; FcγRIIIa allotype F158
Assay: SPR (Biacore), antibody captured, FcγR as analyte
Protocol: Interaction between each modified antibody and Fcγ receptor prepared in the manner described above was analyzed using the Biacore T100 (GE Healthcare), Biacore T200 (GE Healthcare), Biacore A100 or Biacore 4000. HBS-EP+ (GE Healthcare) was used for the running buffer, and measurements were carried out at 25° C. The chips used were chips in which antigen peptides, Protein A (Thermo Scientific), Protein A/G (Thermo Scientific) or Protein L (ACTIGEN or BioVision) were immobilized on the Series S Sensor Chip CM5 (GE Healthcare) or Series S Sensor Chip CM4 (GE Healthcare) by amine coupling, or chips in which preliminarily biotinylated antigen peptides were allowed to interact and then immobilized on the Series S Sensor Chip SA (certified) (GE Healthcare). The target antibodies were captured on these sensor chips, Fcγ receptor diluted with the running buffer was allowed to interact, followed by measurement of the amount of bound antibody. The amounts bound were compared between antibodies. However, since the amount of Fcγ receptor bound depends on the amount of captured antibody, the values used for comparison were first corrected by dividing the amount of Fcγ receptor bound by the captured amount of each antibody. Through reaction with 10 mM glycine-HCl at pH 1.5, the sensor chips were regenerated by washing off antibody captured on the sensor chips and used repeatedly.
Binding strength was evaluated according to the following method based on the results of analyzing the interaction with each FcγR. […] That value was then further multiplied by 100, and the resulting value was used as an indicator of relative binding activity to each FcγR.

T1 sequence (P08637 other isoform, or with tags, fused parts or gaps limits assumed): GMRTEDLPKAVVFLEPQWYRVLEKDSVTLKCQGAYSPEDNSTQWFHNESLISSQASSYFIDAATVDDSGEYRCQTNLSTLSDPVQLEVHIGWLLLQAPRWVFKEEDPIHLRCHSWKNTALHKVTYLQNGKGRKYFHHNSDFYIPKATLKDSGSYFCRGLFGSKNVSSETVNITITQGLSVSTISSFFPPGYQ

Going from B1 to B2, the “relative binding activity (amount bound / amount bound by GpH7-B3/GpL16-k0 x100)” value rises from 17 % of GpH7-B3/GpL16-k0 to 87 % of GpH7-B3/GpL16-k0.

First: B3
Second: B4
The “relative binding activity (amount bound / amount bound by GpH7-B3/GpL16-k0 x100)” value of the first is higher: 55 % of GpH7-B3/GpL16-k0 for the first, 49 % of GpH7-B3/GpL16-k0 for the second.

Going from B5 to B6, the “relative binding activity (amount bound / amount bound by GpH7-B3/GpL16-k0 x100)” value rises from 21 % of GpH7-B3/GpL16-k0 to 25 % of GpH7-B3/GpL16-k0.

Compared with B7, B8 is higher in “relative binding activity (amount bound / amount bound by GpH7-B3/GpL16-k0 x100)” value: 71 % of GpH7-B3/GpL16-k0 for the first, 76 % of GpH7-B3/GpL16-k0 for the second.

First: B9
Second: B10
The “relative binding activity (amount bound / amount bound by GpH7-B3/GpL16-k0 x100)” value of the first is higher: 52 % of GpH7-B3/GpL16-k0 for the first, 31 % of GpH7-B3/GpL16-k0 for the second.

Compared with B11, B12 is higher in “relative binding activity (amount bound / amount bound by GpH7-B3/GpL16-k0 x100)” value: 46 % of GpH7-B3/GpL16-k0 for the first, 68 % of GpH7-B3/GpL16-k0 for the second.

Compared with B13, B14 is higher in “relative binding activity (amount bound / amount bound by GpH7-B3/GpL16-k0 x100)” value: 0 % of GpH7-B3/GpL16-k0 for the first, 52 % of GpH7-B3/GpL16-k0 for the second.
